# B1: proximal S2 (amino acids 839-968) (domain or fragment, human, UniProt P12883 839-968, looked up)
# chain: LLKSAEREKEMASMKEEFTRLKEALEKSEARRKELEEKMVSLLQEKNDLQLQVQAEQDNLADAEERCDQLIKNKIQLEAKVKEMNERLEDEEEMNAELTAKKRKLEDECSELKRDIDDLELTLAKVEKEK
# Assays:
# [1] = biological target: R719W human β-cardiac myosin 2-hep HMM (human, UniProt P12883 1-855; P08590 1-195; P10916 1-166, R719W); assay: MST
# [2] = biological target: D382Y human β-cardiac myosin 2-hep HMM (human, UniProt P12883 1-855; P08590 1-195; P10916 1-166, D382Y); assay: MST
# Chain of D382Y human β-cardiac myosin 2-hep HMM (P12883 1-855 D382Y, chain 1 of 3): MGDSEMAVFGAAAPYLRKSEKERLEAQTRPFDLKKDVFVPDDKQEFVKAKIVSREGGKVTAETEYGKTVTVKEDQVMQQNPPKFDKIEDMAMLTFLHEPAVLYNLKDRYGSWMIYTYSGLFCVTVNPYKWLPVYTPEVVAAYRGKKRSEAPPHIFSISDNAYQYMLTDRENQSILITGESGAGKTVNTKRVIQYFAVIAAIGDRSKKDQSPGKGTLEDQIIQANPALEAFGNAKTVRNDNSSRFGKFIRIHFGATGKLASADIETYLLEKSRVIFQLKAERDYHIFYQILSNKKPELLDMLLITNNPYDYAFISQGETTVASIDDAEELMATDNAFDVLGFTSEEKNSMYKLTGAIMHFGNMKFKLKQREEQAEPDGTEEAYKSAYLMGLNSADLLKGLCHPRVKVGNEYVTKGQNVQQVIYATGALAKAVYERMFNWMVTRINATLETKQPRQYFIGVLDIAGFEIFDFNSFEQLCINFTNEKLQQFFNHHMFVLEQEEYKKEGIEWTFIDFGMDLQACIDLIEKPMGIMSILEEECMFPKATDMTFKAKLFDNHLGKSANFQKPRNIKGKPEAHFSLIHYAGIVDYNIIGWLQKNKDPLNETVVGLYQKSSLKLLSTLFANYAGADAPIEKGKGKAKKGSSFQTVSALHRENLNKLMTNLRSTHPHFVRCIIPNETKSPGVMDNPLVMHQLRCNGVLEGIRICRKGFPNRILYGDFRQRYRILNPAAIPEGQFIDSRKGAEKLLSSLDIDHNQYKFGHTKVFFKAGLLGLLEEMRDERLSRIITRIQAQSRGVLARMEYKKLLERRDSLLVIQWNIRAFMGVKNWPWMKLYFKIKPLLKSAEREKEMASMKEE
# Chain of D382Y human β-cardiac myosin 2-hep HMM (P08590 whole entry, chain 2 of 3): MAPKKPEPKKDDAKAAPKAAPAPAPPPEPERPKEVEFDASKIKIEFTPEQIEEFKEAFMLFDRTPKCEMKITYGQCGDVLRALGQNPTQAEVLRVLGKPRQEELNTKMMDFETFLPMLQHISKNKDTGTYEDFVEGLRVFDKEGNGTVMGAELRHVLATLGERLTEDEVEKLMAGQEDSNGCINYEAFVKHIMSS
# Chain of D382Y human β-cardiac myosin 2-hep HMM (P10916 whole entry, chain 3 of 3): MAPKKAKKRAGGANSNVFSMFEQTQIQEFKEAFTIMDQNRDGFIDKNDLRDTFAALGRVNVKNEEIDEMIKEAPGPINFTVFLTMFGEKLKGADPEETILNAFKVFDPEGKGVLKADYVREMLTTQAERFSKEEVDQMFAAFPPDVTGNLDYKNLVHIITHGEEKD
# Chain of R719W human β-cardiac myosin 2-hep HMM (P12883 1-855 R719W, chain 1 of 3): as the sequence (P12883 1-855 D382Y, chain 1 of 3) above, with Y382D, R719W counted along it
# Chain of R719W human β-cardiac myosin 2-hep HMM (P08590 whole entry, chain 2 of 3): as the sequence (P08590 whole entry, chain 2 of 3) above
# Chain of R719W human β-cardiac myosin 2-hep HMM (P10916 whole entry, chain 3 of 3): as the sequence (P10916 whole entry, chain 3 of 3) above
binder,measurement,setting,value
B1,fold change of affinity against WT 2-hep HMM,[1],< 2 fold
same,fold change of affinity against WT 2-hep HMM,[2],< 2 fold

# — doi:10.1101/537159 (bioRxiv, 2019)
